Data published in patent US20120183570A1 (WASHINGTON STATE UNIVERSITY, published 2012).

Experiments:
Ovalbumin = biological target: T1, Ovalbumin (UniProt P01012 2-386); experiment: ELISA on ovalbumin-coated wells, anti-GST detection
T1 construct: also called ovalbumin (negative control)
T1 sequence: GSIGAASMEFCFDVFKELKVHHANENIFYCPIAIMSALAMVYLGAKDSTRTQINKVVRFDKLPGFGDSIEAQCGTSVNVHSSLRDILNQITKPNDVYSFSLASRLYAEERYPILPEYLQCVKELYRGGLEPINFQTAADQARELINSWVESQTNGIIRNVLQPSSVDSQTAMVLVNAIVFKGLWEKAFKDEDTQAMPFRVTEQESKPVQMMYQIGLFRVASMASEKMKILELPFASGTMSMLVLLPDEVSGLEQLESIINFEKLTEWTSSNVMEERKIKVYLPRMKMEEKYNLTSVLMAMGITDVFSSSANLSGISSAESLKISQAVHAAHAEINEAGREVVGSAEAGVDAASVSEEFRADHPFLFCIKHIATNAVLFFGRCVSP

[1] = biological target: T2, Fn gelatin-binding domain (GBD), 40 kDa fragment (human, UniProt P02751 291-630); experiment: ELISA, GST fusion on GBD-coated wells (FIG. 22)
T2 construct: also called Fn-GBD
T2 sequence (P02751 291-630 limits assumed): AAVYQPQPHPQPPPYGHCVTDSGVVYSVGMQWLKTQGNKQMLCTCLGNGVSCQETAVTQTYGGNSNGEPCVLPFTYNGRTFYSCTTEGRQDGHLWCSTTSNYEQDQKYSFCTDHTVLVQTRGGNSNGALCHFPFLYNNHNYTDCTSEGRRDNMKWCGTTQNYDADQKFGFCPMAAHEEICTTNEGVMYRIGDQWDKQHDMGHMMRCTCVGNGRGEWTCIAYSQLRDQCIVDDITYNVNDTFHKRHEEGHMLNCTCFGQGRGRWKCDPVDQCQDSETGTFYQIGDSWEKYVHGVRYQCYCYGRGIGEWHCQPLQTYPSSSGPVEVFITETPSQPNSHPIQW

[2] = biological target: T3, Fn N-terminal domain (NTD), 30 kDa fragment (human, UniProt P02751 32-290); experiment: ELISA on NTD-coated wells, anti-GST detection
T3 construct: domain: N-terminal domain (NTD), FN1 1-5; also called 30 kDa NTD; 30-kDa proteolytic fragment from human Fn
T3 sequence (P02751 32-290 limits assumed): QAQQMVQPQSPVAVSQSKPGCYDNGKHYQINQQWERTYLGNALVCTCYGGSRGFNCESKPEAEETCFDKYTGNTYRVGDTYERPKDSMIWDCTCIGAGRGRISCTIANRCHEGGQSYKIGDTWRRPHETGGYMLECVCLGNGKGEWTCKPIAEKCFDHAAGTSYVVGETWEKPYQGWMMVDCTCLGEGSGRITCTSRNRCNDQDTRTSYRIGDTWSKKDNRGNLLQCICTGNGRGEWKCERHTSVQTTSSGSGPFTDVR

[3] = biological target: Bovine serum albumin (BSA) (bovine, UniProt P02769 25-607); experiment: ELISA on BSA-coated wells, anti-GST detection
Bovine serum albumin (BSA), sequence (P02769 25-607 limits assumed): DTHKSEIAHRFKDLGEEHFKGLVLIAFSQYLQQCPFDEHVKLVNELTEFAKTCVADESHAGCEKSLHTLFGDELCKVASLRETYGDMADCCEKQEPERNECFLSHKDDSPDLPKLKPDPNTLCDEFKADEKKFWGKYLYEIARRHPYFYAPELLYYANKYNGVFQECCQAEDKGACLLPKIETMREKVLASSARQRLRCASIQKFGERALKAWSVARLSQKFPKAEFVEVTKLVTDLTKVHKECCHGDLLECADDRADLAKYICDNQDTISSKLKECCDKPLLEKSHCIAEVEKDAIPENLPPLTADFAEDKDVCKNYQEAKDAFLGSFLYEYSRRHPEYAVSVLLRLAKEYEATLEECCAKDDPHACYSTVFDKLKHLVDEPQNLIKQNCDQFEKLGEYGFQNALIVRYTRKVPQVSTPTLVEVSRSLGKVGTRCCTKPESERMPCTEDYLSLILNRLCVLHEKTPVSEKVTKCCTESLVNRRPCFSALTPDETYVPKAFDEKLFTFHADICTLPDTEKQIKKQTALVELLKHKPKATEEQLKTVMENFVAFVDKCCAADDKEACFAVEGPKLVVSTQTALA

[4] = biological target: T4, Human plasma fibronectin (Fn) (human, UniProt P02751-9 32-2240, limits assumed); experiment: ELISAs with GST domain fusions and Fn
T4 construct: It is treated as the same molecule; also called full-length Fn
T4 sequence (P02751 other isoform, or with tags, fused parts or gaps limits assumed): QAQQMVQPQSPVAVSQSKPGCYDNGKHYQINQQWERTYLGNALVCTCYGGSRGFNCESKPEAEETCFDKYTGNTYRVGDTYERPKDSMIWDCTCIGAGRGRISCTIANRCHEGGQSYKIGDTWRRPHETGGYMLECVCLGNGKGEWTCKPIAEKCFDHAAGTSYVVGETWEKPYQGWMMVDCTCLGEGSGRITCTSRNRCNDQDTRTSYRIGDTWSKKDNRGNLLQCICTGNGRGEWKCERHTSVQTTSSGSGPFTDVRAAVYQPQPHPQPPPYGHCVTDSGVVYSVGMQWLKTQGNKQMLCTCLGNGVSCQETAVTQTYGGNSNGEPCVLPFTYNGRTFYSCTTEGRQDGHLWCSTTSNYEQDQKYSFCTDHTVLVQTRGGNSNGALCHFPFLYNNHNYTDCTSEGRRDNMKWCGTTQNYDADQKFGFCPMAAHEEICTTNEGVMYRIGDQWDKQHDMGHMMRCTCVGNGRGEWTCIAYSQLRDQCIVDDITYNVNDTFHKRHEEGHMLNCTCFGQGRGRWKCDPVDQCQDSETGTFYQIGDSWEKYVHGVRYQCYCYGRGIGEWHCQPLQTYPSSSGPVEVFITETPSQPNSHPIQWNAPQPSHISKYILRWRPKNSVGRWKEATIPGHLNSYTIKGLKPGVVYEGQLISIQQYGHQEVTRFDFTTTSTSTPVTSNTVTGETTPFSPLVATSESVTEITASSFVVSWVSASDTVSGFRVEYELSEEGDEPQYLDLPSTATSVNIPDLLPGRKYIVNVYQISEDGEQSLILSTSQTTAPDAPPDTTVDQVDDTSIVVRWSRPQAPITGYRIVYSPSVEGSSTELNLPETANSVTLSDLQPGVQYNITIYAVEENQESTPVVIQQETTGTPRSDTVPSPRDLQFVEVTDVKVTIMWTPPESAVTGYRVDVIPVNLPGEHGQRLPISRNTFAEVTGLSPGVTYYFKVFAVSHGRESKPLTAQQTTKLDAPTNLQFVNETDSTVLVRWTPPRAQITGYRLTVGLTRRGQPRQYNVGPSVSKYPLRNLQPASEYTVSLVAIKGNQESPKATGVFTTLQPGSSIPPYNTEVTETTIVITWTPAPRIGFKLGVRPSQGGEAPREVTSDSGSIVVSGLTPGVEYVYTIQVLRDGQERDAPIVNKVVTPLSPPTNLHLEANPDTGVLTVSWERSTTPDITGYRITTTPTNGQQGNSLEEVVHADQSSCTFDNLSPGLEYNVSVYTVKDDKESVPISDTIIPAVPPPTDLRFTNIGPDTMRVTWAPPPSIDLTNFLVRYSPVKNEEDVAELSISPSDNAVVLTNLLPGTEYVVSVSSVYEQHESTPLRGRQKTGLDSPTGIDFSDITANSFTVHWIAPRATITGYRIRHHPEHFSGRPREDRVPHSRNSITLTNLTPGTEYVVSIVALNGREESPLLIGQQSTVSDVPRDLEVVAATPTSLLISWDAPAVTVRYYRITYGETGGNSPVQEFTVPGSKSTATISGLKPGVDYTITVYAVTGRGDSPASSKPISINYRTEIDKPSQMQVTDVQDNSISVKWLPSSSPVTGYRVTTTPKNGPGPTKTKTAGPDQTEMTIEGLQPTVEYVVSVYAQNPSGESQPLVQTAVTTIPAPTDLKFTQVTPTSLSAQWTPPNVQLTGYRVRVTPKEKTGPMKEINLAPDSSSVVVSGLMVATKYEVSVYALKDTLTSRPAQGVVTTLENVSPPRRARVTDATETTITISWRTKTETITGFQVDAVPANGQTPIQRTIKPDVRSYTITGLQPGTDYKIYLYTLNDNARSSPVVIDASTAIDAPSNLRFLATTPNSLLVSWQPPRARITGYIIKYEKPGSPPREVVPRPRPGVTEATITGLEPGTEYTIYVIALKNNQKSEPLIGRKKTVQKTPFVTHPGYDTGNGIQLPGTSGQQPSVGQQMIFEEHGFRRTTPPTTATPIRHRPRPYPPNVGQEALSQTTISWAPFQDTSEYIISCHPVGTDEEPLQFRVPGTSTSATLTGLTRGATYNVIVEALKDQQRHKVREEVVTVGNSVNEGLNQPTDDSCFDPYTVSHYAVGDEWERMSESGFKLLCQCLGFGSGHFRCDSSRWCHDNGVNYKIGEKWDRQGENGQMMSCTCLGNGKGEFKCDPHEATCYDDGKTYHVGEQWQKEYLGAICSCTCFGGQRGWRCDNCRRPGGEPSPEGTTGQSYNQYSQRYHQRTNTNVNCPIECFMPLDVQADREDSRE

[5] = biological target: T2, Fn gelatin-binding domain (GBD), 40 kDa …; experiment: ELISA on GBD-coated wells, anti-GST detection
[6] = biological target: T4, Human plasma fibronectin (Fn); experiment: ELISA, Fn on peptide-coated wells

B1: FlpA-D2-GST (aa135-226) (other)
chain: RLEAVPFVQAVTNLPNRIKLIWRPHPDFRVDSYIIERTKGDDKEFKKIAEVKNRLNAEYIDSDLKPNENSSYRIIAVSFNGIKSGSSQVVSS
notes: also called FlpA domain 2; not shown: glutathione S-transferase (GST) tag of vector pGEX-5x-1, N-terminal
binding result (Ovalbumin): no binding (tested: up to 1000 nM) | binding result [1]: binds | binding result [2]: no binding (tested: up to 1000 nM)

B2: FlpA-GST (aa35-410) (other)
chain: PAVNESLPKVESLKSLSDMSNIAFEWEPLYNENIKGFYLYRSSDENPDFKLVGTIKDKFQTHYVDTKLEPGTKYRYMMKSFNEQGQISEDGKVIEVSTAPRLEAVPFVQAVTNLPNRIKLIWRPHPDFRVDSYIIERTKGDDKEFKKIAEVKNRLNAEYIDSDLKPNENSSYRIIAVSFNGIKSGSSQVVSSTSKALPPQVEHLSASTDGSSKIILTWDAPTYEDFSYYKVYSTSSSFLPFSVLAKTDKNSYEDIVEGAGKSKYYKVTMVDKDGLESPMPKDGVEGKTLGNPLAPSIILAQSTSEGINLEWSDNDTRAVEYEVRRYGGEQNAVFKGIKEKRLKDVKALPGVEYSYEVIAIDSAGLRSEPSSKVKAA
notes: also called full-length FlpA-GST; FlpA full-length; not shown: glutathione S-transferase (GST) tag of vector pGEX-5x-1, N-terminal
binding result (Ovalbumin): no binding (tested: up to 1000 nM) | binding result [3]: no binding | binding result [2]: no binding (tested: up to 1000 nM)

B3: FlpA-D1-GST (aa35-132) (other)
chain: PAVNESLPKVESLKSLSDMSNIAFEWEPLYNENIKGFYLYRSSDENPDFKLVGTIKDKFQTHYVDTKLEPGTKYRYMMKSFNEQGQISEDGKVIEVST
notes: not shown: glutathione S-transferase (GST) tag of vector pGEX-5x-1, N-terminal
binding result [4]: no binding | binding result [5]: no binding (tested: up to 1000 nM)

B4: FlpA-D3-GST (aa232-410) (other)
chain: PPQVEHLSASTDGSSKIILTWDAPTYEDFSYYKVYSTSSSFLPFSVLAKTDKNSYEDIVEGAGKSKYYKVTMVDKDGLESPMPKDGVEGKTLGNPLAPSIILAQSTSEGINLEWSDNDTRAVEYEVRRYGGEQNAVFKGIKEKRLKDVKALPGVEYSYEVIAIDSAGLRSEPSSKVKAA
notes: as for B3
binding result [4]: no binding | binding result [5]: no binding (tested: up to 1000 nM)

DSYIIERTKGDDKEFKKIAEVKNRLNAEYI (Synthetic 30mer of FlpA-D2) [FlpA peptide P3 (D165-I194)]
binding result [6]: no binding (tested: Fn up to 20 µg/ml)

FVQAVTNLPNRIKLIWR (Synthetic peptide) [FlpA peptide P7 (F141-R157)]
binding result [6]: no binding

B5: FlpA peptide P5 (D195-V224) (peptide)
peptide: DSDLKPNENSSYRIIAVSFNGIKSGSSQVV
notes: Synthetic 30mer of FlpA-D2; Used as a negative control in later ELISAs
binding result [6]: no binding

B6: CadF peptide FRLS- (aa118-133) (peptide)
peptide: YDNKSGGFGHYGAGVK
notes: Synthetic negative control peptide; also called CadF FRLS^-
binding result [6]: no binding

KKIAEVKNRLNAEYIDSDLKPNENSSYRII (Synthetic 30mer of FlpA-D2) [FlpA peptide P4 (K180-I209)]
binding result [6]: no binding
